The text below walks through data of the RNAGym collection of RNA variant scans (doi:10.1021/acssynbio.7b00057).

First the molecules themselves.
B1: Pistol ribozyme (parent)
chain: GGGUCGUUGUUCCAUAAUCGCGUGGAUAUGGCACGCAAGUUUCUACCGGGCACCGUAAAUGUCCGACUGGAGCCGUUCGGGCGGCUAUAAACAGACCUCAGGCCCGAAGCGUGGCGGCACCUGCCGCCGGUGGUAAAAAAGAUCGGAAGAGCACACGUCU

The data set covers variants of B1. Nature of the data set: aptazyme ON/OFF ratio, guanine; higher = stronger switching; co-transcriptional cleavage with and without guanine.
Regarding GGGUCGGGAUCUUAUAAUCGCGUGGAUAUGGCACGCAAGUUUCUACCGGGCACCGUAAAUGUCCGACUGGAGCCGUUCGGGCGGCUAUAAACAGACCUCAGGCCCGAAGCGUGGCGGCACCUGCCGCCGGUGGUAAAAAAGAUCGGAAGAGCACACGUCU, the “aptazyme ON/OFF ratio” value stood at 1.02.
For GGGUCGGGAUCUGAUAAUCGCGUGGAUAUGGCACGCAAGUUUCUACCGGGCACCGUAAAUGUCCGACUGGAGCCGUUCGGGCGGCUAUAAACAGACCUCAGGCCCGAAGCGUGGCGGCACCUGCCGCCGGUGGUAAAAAAGAUCGGAAGAGCACACGUCU, the “aptazyme ON/OFF ratio” value is 1.44.
GGGUCGGGAUGAAAUAAUCGCGUGGAUAUGGCACGCAAGUUUCUACCGGGCACCGUAAAUGUCCGACUGGAGCCGUUCGGGCGGCUAUAAACAGACCUCAGGCCCGAAGCGUGGCGGCACCUGCCGCCGGUGGUAAAAAAGAUCGGAAGAGCACACGUCU: the “aptazyme ON/OFF ratio” value came out at 0.999.
Consider GGGUCGGGAUGAUAUAAUCGCGUGGAUAUGGCACGCAAGUUUCUACCGGGCACCGUAAAUGUCCGACUGGAGCCGUUCGGGCGGCUAUAAACAGACCUCAGGCCCGAAGCGUGGCGGCACCUGCCGCCGGUGGUAAAAAAGAUCGGAAGAGCACACGUCU, for which the “aptazyme ON/OFF ratio” value stood at 1.18.
Take GGGUCGGGAUGAGAUAAUCGCGUGGAUAUGGCACGCAAGUUUCUACCGGGCACCGUAAAUGUCCGACUGGAGCCGUUCGGGCGGCUAUAAACAGACCUCAGGCCCGAAGCGUGGCGGCACCUGCCGCCGGUGGUAAAAAAGAUCGGAAGAGCACACGUCU: the “aptazyme ON/OFF ratio” value was found to be 1.09.
In the case of GGGUCGGGAUGGGAUAAUCGCGUGGAUAUGGCACGCAAGUUUCUACCGGGCACCGUAAAUGUCCGACUGGAGCCGUUCGGGCGGCUAUAAACAGACCUCAGGCCCGAAGCGUGGCGGCACCUGCCGCCGGUGGUAAAAAAGAUCGGAAGAGCACACGUCU, the “aptazyme ON/OFF ratio” value turned out to be 1.12.
Turning to GGGUCGGGAUGGAAUAAUCGCGUGGAUAUGGCACGCAAGUUUCUACCGGGCACCGUAAAUGUCCGACUGGAGCCGUUCGGGCGGCUAUAAACAGACCUCAGGCCCGAAGCGUGGCGGCACCUGCCGCCGGUGGUAAAAAAGAUCGGAAGAGCACACGUCU, the “aptazyme ON/OFF ratio” value came to 1.12.
For GGGUCGGGAUGGUAUAAUCGCGUGGAUAUGGCACGCAAGUUUCUACCGGGCACCGUAAAUGUCCGACUGGAGCCGUUCGGGCGGCUAUAAACAGACCUCAGGCCCGAAGCGUGGCGGCACCUGCCGCCGGUGGUAAAAAAGAUCGGAAGAGCACACGUCU, the “aptazyme ON/OFF ratio” value amounted to 1.23.
As to GGGUCGGGAUGGCAUAAUCGCGUGGAUAUGGCACGCAAGUUUCUACCGGGCACCGUAAAUGUCCGACUGGAGCCGUUCGGGCGGCUAUAAACAGACCUCAGGCCCGAAGCGUGGCGGCACCUGCCGCCGGUGGUAAAAAAGAUCGGAAGAGCACACGUCU, the “aptazyme ON/OFF ratio” value was found to be 1.39.
Turning to GGGUCGGGAUGUCAUAAUCGCGUGGAUAUGGCACGCAAGUUUCUACCGGGCACCGUAAAUGUCCGACUGGAGCCGUUCGGGCGGCUAUAAACAGACCUCAGGCCCGAAGCGUGGCGGCACCUGCCGCCGGUGGUAAAAAAGAUCGGAAGAGCACACGUCU, the “aptazyme ON/OFF ratio” value came out at 1.5.
Consider GGGUCGGGAUGACAUAAUCGCGUGGAUAUGGCACGCAAGUUUCUACCGGGCACCGUAAAUGUCCGACUGGAGCCGUUCGGGCGGCUAUAAACAGACCUCAGGCCCGAAGCGUGGCGGCACCUGCCGCCGGUGGUAAAAAAGAUCGGAAGAGCACACGUCU, for which the “aptazyme ON/OFF ratio” value worked out at 1.28.
With GGGUCGGGAUCCUAUAAUCGCGUGGAUAUGGCACGCAAGUUUCUACCGGGCACCGUAAAUGUCCGACUGGAGCCGUUCGGGCGGCUAUAAACAGACCUCAGGCCCGAAGCGUGGCGGCACCUGCCGCCGGUGGUAAAAAAGAUCGGAAGAGCACACGUCU, the “aptazyme ON/OFF ratio” value came out at 1.28.
Regarding GGGUCGGGAUCCAAUAAUCGCGUGGAUAUGGCACGCAAGUUUCUACCGGGCACCGUAAAUGUCCGACUGGAGCCGUUCGGGCGGCUAUAAACAGACCUCAGGCCCGAAGCGUGGCGGCACCUGCCGCCGGUGGUAAAAAAGAUCGGAAGAGCACACGUCU, the “aptazyme ON/OFF ratio” value turned out to be 1.25.
With GGGUCGGGAUCCGAUAAUCGCGUGGAUAUGGCACGCAAGUUUCUACCGGGCACCGUAAAUGUCCGACUGGAGCCGUUCGGGCGGCUAUAAACAGACCUCAGGCCCGAAGCGUGGCGGCACCUGCCGCCGGUGGUAAAAAAGAUCGGAAGAGCACACGUCU, the “aptazyme ON/OFF ratio” value worked out at 1.12.
For the variant GGGUCGGGAUGUUAUAAUCGCGUGGAUAUGGCACGCAAGUUUCUACCGGGCACCGUAAAUGUCCGACUGGAGCCGUUCGGGCGGCUAUAAACAGACCUCAGGCCCGAAGCGUGGCGGCACCUGCCGCCGGUGGUAAAAAAGAUCGGAAGAGCACACGUCU, the “aptazyme ON/OFF ratio” value worked out at 1.4.
With GGGUCGGGAUGUGAUAAUCGCGUGGAUAUGGCACGCAAGUUUCUACCGGGCACCGUAAAUGUCCGACUGGAGCCGUUCGGGCGGCUAUAAACAGACCUCAGGCCCGAAGCGUGGCGGCACCUGCCGCCGGUGGUAAAAAAGAUCGGAAGAGCACACGUCU the figure was 1.25; with GGGUCGGGAUGUAAUAAUCGCGUGGAUAUGGCACGCAAGUUUCUACCGGGCACCGUAAAUGUCCGACUGGAGCCGUUCGGGCGGCUAUAAACAGACCUCAGGCCCGAAGCGUGGCGGCACCUGCCGCCGGUGGUAAAAAAGAUCGGAAGAGCACACGUCU, 1.23.
Regarding GGGUCGGGAUGCCAUAAUCGCGUGGAUAUGGCACGCAAGUUUCUACCGGGCACCGUAAAUGUCCGACUGGAGCCGUUCGGGCGGCUAUAAACAGACCUCAGGCCCGAAGCGUGGCGGCACCUGCCGCCGGUGGUAAAAAAGAUCGGAAGAGCACACGUCU, the “aptazyme ON/OFF ratio” value came out at 1.91.
